These results are taken from the supplement of paper PMC12042874.

± gives the uncertainty stated by the source.

A short description of this series: amyloid nucleation score (Sup35N fusion, yeast selection) (log enrichment); library NNK1; higher = more nucleation; inactive = no reads after selection. The essentials: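 The nucleation score is the DiMSum log enrichment of output over input reads, centred on the mode score of non-aggregating sequences. Only sequences with 100 or more input reads were scored, using Illumina sequencing of input and output plasmid inserts. Psi-negative yeast expressing Sup35N fused to peptides of 20 random codons were induced 24 hours with 100 μM copper sulfate and grown 7 days at 30°C on medium lacking adenine and uracil.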

Substance GLLNTYS registered an amyloid nucleation score of 0.626 ± 1.2. In the case of VSPGVFMGVLLMALKFFQAK, the amyloid nucleation score is -0.303 ± 0.71.

Substance AWMGLKNVN registered an amyloid nucleation score of 1.59 ± 0.69. For RWYSHFSAMQWGATLCFWGL the value was 2.64 ± 0.11; for FDKSRVDRLSDKGRCCCVL, 1.36 ± 0.69.

GSDVREWLVQQSKSMFLWVW returned an amyloid nucleation score of -0.226 ± 0.47. Then GLMWKAN, with 0.537 ± 0.67; and PIKHCRRRNTDRRKTGMSQV, with -0.447 ± 0.62; and NFARDLKRHVRMG, with 0.461 ± 0.35.

LVFFHISR showed an amyloid nucleation score of 4.94 ± 0.1. Then KEYNNPRLKLTMRRFAAKS, with 0.539 ± 0.69; and QFRGLDLCLRIRRLVAYTGI, with 0.285 ± 0.64. Turning to FVLLELVSVVRVLHYDGIWD, the amyloid nucleation score was 0.079 ± 0.51.

Consider AWYMPIWFLAYFL, for which the amyloid nucleation score was determined as 1.24 ± 0.14. Substance DRYCGYWNGTSSCMICGRVV gave an amyloid nucleation score of 1.1 ± 0.69. Then HYSNVKTGGKSGKWEIRDLE, with -0.559 ± 0.35; and IIVGVVNTRDYLYCRNFVYI, with 2.79 ± 0.1; and NSRFKNFMSNTHVH, with “inactive”. For RMAWMEGRPGDRMSRYGTSC the value was “inactive”; for NIASGFGFPYRGVLSC, 0.184 ± 1. For QEINGKAQWSPIHSISTMAA the value was 0.33 ± 0.51. The substance LRITNAPKLVYVSAQEVNSQ registered an amyloid nucleation score of 1.47 ± 0.25. For LNTCLFISDTAVFIMASYMV the value was 3.06 ± 0.45.

MLEGMRRWNNIALVVIRGVG: the amyloid nucleation score was -0.556 ± 1.1.

With RYKWMYFCFHLIMVGNRMSA, the amyloid nucleation score result was “inactive”. For LHGPVFYKFACVVASPWGSI the value was -0.235 ± 0.41.

LKNGSDSILDARVYLGG showed an amyloid nucleation score of -0.221 ± 0.51. Then SGQTYGNFFGEAFWYECA, with 0.19 ± 1.4; and MNALGSTYWDQQSAQQSMWS, with 4.92 ± 0.068; and KSVAIAPYDGCVMFSKQTWG, with -0.025 ± 0.63. Then DWGERRLSRFNGAYSVVTMV, with 0.599 ± 0.6.

On to DFSLSSPRFLFGDGCRNCNA, for which the amyloid nucleation score was -0.028 ± 0.36.

In the case of DFVLIFLRICSCPSHTNFYL, the amyloid nucleation score is 3.45 ± 0.12.

In turn, GVCRLLGKVAMLV came in with an amyloid nucleation score of -2.1 ± 2.4.

As to GDVFVYSDDWGDGVNGSGGR, the amyloid nucleation score is -1.96 ± 2.4. For VLYMVEACLVWGIRQSESAV the value was 0.393 ± 0.73. Then TWSCMFLYYFTLWLCTS, with “inactive”; and EVRRFMTPGENESSREVAYF, with -0.02 ± 0.45; and HTFSRRTGAGGSAKLT, with 0.972 ± 0.6. Then PGCIICRVMTEANSRCLVRA, with 0.141 ± 1.2; and GLNALSFNQV, with -0.383 ± 0.48.

DIRCGLDGNWVSSFVRQQGS: the amyloid nucleation score entry is “inactive”.

For TISGAVRGCGGCSIRWLMSL, the amyloid nucleation score is -0.663 ± 0.33.

Consider MHLCINWSLSCRAADQFMRR, for which the amyloid nucleation score worked out at 3.53 ± 0.17. Take LRFIRRYIESHITFVRKLLK: the amyloid nucleation score result is “inactive”.

Regarding WSWRLPGPCLFFCAEEQLTK, the amyloid nucleation score amounted to 1.32 ± 0.84. For KRSTVRHYYRARCFITVAMV the value was -0.365 ± 0.45; for SSITVITVATQVEYNTVHDF, 1.37 ± 0.45; for IFLNKRSTSAWFSMLLLFLS, 1.4 ± 0.14. For SNLRMLNMASTSPR the value was -0.368 ± 0.34. Then SPSYQRCLQMLEKIWKDLNH, with 0.497 ± 0.31; and PFGVVGDVFQSTLC, with 0.371 ± 0.84; and PWDYVSLSI, with -0.424 ± 0.73.

RYAWVTMVVYACLQLGSASR gave an amyloid nucleation score of 0.678 ± 0.21. For NAVITESLIDKAPVGSNWDT the value was -0.498 ± 0.59; for RYMWYLVCS, 0.026 ± 0.7. For WVPMDVF the value was 1.61 ± 0.35; for LRCKMYSMWKTSYFTVMLGG, -0.261 ± 0.44; for NISPISYKIVVTIYSYFWLS, 0.452 ± 0.4. Then ELKLLSNAFGMQGIWIRRVV, with -0.113 ± 0.32; and CWVYDGRIYPHL, with 1.05 ± 0.85. In the case of SRRVQLYVLGFRGIKSGTFL, the amyloid nucleation score is -0.066 ± 0.62. FNYLICAVDSRTLNSW gave an amyloid nucleation score of 4.7 ± 0.05. With FMRSATCKVWNL, the amyloid nucleation score is -0.079 ± 0.51. ISLISYFFSFLWLYYYFFEF had an amyloid nucleation score of 1.06 ± 0.28.

MEPFSAC yielded an amyloid nucleation score of -0.276 ± 1.9. In the case of ICVCKDVCGLYRCLLGTGGS, the amyloid nucleation score turned out to be 1.13 ± 0.57.

FVKRF showed an amyloid nucleation score of 0.073 ± 0.4. Substance DPEVIGLIVCNM returned an amyloid nucleation score of -1.16 ± 1.

Substance NECDVALIRWWG yielded an amyloid nucleation score of 0.419 ± 0.45. Then LWTFGDRSVWLDDSMRWVPR, with -0.145 ± 1.1; and VNIRVRD, with 0.023 ± 0.33; and ARFVDYPCALLWARTSR, with -0.375 ± 0.56. Then ECTRSGVFSCNSWIKYESSM, with -0.145 ± 0.31; and NFLCFGFFRWTVPDWAQFYV, with 3.76 ± 0.12; and RGVLFVAINW, with 2.47 ± 0.31.

Regarding SMLRCLY, the amyloid nucleation score stood at 0.758 ± 0.85. For YISKSCRWSRTASSNVCIFI the value was 0.022 ± 0.33; for YCMCCNNRVLMVYHCTQVSA, “inactive”. For DGCSRFRREGAEVYQRMGIG the value was 1.04 ± 0.85; for YEALQ, -0.703 ± 1; for VVCVLRVVDVMFASRS, 0.694 ± 1.2. The substance NGWIMRR had an amyloid nucleation score of -0.094 ± 1.5.

For the substance VRVISLEVLGYFCPRRLAGA, the amyloid nucleation score result is “inactive”. For HSLSFTNVVDTSLPLVLANF the value was -2.15 ± 2.4; for ELTNR, 0.044 ± 0.39; for IFLIMKNRTSILRPTGFLVS, -0.402 ± 0.49. Then EFPIHQERAPSTTIHPSVSC, with 0.765 ± 0.9; and QVNRSVDFPSRFIKSY, with -0.687 ± 1.4. In the case of CFPMIQMEHSIKS, the amyloid nucleation score is -0.449 ± 1.1. Then QIKVTGRRSSDEGSQGGWLL, with 3.82 ± 0.081.

Turning to RFQTGPTLCSPQTEWPVLLN, the amyloid nucleation score stood at 0.987 ± 0.56. In turn, YFWLNTNTLCSYWRMRHWVS returned an amyloid nucleation score of 0.524 ± 0.61. Then TSWGNVDGCYNGRTLVLLDF, with -0.316 ± 0.67. Turning to SPTVERSTGIR, the amyloid nucleation score is -0.089 ± 0.49. For DGRRLNLIWLYRIFWN the value was -0.767 ± 0.37. For MEHYLACIWITHVCF the value was 0.117 ± 1.1. With TVAFSVTTVDR, the amyloid nucleation score is -0.875 ± 2.4.

For PVLPDDLNARREYSGCIKYL, the amyloid nucleation score was 0.765 ± 0.55.

Substance CFMETYSWKVRYTLFHKLST came in with an amyloid nucleation score of 0.552 ± 0.79. Then RWLGRRMRAGFAYGAFRTGY, with 0.054 ± 0.8; and HMNRVSGVMVVLSRGLAGMN, with 2.67 ± 0.23. Then ISNWDVLSCMTQDIGVMTLL, with -0.092 ± 0.82; and VADGYIHARSCRYFKNIIVR, with -1 ± 1.2; and YWNMTCNTV, with -0.139 ± 0.52. Then ATHKNWIKRDTVHSLDGC, with 0.041 ± 0.26; and HGSECSWRLLLRHPLMGTSG, with -0.089 ± 0.49; and TSWFSYRLANCAFHSQGFSR, with 0.366 ± 0.38.

Take SRDRNLVGLKLHVTVNKDVF: the amyloid nucleation score was -1.41 ± 2.4. For IFATTIFLLGTRTKLMSG the value was 0.971 ± 0.65. As for SNVMWFYSWMWVRVTRRTCL, the amyloid nucleation score was 1.71 ± 0.49. Then KTFLHSTSYNNKKRWMSLRQ, with 0.485 ± 0.66.

In turn, LDGFSVNLCWFRHTERCVAC registered an amyloid nucleation score of -0.224 ± 0.78. AAGHVAVAIRNRVVIARSRT yielded an amyloid nucleation score of 3.4 ± 0.11. Then KFLLNRVLTDMDLYT, with 0.135 ± 0.37. Substance LNNHETFFGFVDVSGSAIS had an amyloid nucleation score of 0.272 ± 0.26. MVHCRQI came in with an amyloid nucleation score of 0.219 ± 0.32. Then RTVTWEMQKVDWSLWSCRWL, with 2.56 ± 0.17; and SGLIKVGISLRLHYGLYLRY, with 0.684 ± 0.88. NTTATLMGHTQPIYSIYSVF displayed an amyloid nucleation score of 1.11 ± 0.94. Then FVLLRIRHRFFWGSCLNPFQ, with 1.12 ± 0.26; and SAGHLNYNEWLNGCGDRGKC, with -0.367 ± 0.53.

As to LEILL, the amyloid nucleation score is 0.145 ± 0.45. For RESDFYTLDLRQVMISAEPL the value was 0.158 ± 0.36; for VFRPGRSSDCNLSMLVQRVW, 4.18 ± 0.088. Turning to LVPVITWK, the amyloid nucleation score turned out to be 4.3 ± 0.13. For YSLAMRLVPGPPQDENHTVN the value was -1.94 ± 1.8; for CFIIIQPCANGWWYRCRSCV, -0.236 ± 0.38; for AKSVYILVR, “inactive”. For IIEIFVDIRYHFMY the value was 1.91 ± 0.38; for GGGGNVGGFFMWCSVYSAGV, -0.105 ± 0.96. In the case of DREIAMVWHLSYIIFYFSES, the amyloid nucleation score was -0.993 ± 0.33. For FCELELMVHVVMPFKAVS the value was 0.831 ± 0.77; for QLRGWQYSKATREVDSREDR, 0.646 ± 0.79; for RSEVEFNTPHLLKCVPDMSF, 0.587 ± 0.42. For YLHSSGGYNFSVRVSKYNCE the value was -0.689 ± 0.61. For LWSPSQ the value was 0.202 ± 0.56; for VVTRDQLYQ, -0.817 ± 1.7.

As to SYRSYGSSSCSVWRTAAGDQ, the amyloid nucleation score came to 2.9 ± 0.084.
